Laboratory results reported in patent US20130052191A1 (Sanofi, published 2013).

B1: anti-VLA-2 IgG1-S298A/S324N (antibody)
heavy: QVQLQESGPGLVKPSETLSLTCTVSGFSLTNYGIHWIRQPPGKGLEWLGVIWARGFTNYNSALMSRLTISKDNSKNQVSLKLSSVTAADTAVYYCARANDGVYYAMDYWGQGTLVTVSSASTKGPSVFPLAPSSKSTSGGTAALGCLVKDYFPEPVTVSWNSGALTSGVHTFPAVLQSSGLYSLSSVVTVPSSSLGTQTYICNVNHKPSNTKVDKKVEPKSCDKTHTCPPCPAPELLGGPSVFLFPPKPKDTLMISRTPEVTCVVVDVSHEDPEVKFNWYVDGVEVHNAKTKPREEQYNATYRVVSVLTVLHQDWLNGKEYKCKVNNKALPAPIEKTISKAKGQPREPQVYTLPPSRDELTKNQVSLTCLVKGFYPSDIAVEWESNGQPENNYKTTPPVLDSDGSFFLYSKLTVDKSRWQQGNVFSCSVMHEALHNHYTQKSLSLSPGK
light: DFVMTQSPAFLSVTPGEKVTITCSAQSSVNYIHWYQQKPDQAPKKLIYDTSKLASGVPSRFSGSGSGTDYTFTISSLEAEDAATYYCQQWTTNPLTFGQGTKVEIKRTVAAPSVFIFPPSDEQLKSGTASVVCLLNNFYPREAKVQWKVDNALQSGNSQESVTEQDSKDSTYSLSSTLTLSKADYEKHKVYACEVTHQGLSSPVTKSFNRGEC
B2: anti-VLA-2 IgG3 (antibody)
heavy: QVQLQESGPGLVKPSETLSLTCTVSGFSLTNYGIHWIRQPPGKGLEWLGVIWARGFTNYNSALMSRLTISKDNSKNQVSLKLSSVTAADTAVYYCARANDGVYYAMDYWGQGTLVTVSSASTKGPSVFPLAPCSRSTSGGTAALGCLVKDYFPEPVTVSWNSGALTSGVHTFPAVLQSSGLYSLSSVVTVPSSSLGTQTYTCNVNHKPSNTKVDKRVELKTPLGDTTHTCPRCPEPKSCDTPPPCPRCPEPKSCDTPPPCPRCPEPKSCDTPPPCPRCPAPELLGGPSVFLFPPKPKDTLMISRTPEVTCVVVDVSHEDPEVQFKWYVDGVEVHNAKTKPREEQYNSTFRVVSVLTVLHQDWLNGKEYKCKVSNKALPAPIEKTISKTKGQPREPQVYTLPPSREEMTKNQVSLTCLVKGFYPSDIAVEWESSGQPENNYNTTPPMLDSDGSFFLYSKLTVDKSRWQQGNIFSCSVMHEALHNRFTQKSLSLSPGK
light: DFVMTQSPAFLSVTPGEKVTITCSAQSSVNYIHWYQQKPDQAPKKLIYDTSKLASGVPSRFSGSGSGTDYTFTISSLEAEDAATYYCQQWTTNPLTFGQGTKVEIKRTVAAPSVFIFPPSDEQLKSGTASVVCLLNNFYPREAKVQWKVDNALQSGNSQESVTEQDSKDSTYSLSSTLTLSKADYEKHKVYACEVTHQGLSSPVTKSFNRGEC
B3: anti-VLA-2 IgG1-E269D (antibody)
heavy: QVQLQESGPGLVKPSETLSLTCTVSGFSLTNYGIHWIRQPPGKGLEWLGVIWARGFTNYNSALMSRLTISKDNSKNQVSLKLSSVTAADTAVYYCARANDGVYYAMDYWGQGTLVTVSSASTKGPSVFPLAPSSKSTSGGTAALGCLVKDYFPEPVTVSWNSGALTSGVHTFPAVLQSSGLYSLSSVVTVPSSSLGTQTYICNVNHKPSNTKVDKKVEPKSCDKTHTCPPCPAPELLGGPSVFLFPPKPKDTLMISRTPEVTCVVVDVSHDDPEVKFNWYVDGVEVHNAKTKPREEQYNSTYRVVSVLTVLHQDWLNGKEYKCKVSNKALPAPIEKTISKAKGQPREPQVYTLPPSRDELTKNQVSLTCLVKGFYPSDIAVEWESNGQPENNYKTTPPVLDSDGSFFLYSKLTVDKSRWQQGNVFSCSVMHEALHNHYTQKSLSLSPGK
light: DFVMTQSPAFLSVTPGEKVTITCSAQSSVNYIHWYQQKPDQAPKKLIYDTSKLASGVPSRFSGSGSGTDYTFTISSLEAEDAATYYCQQWTTNPLTFGQGTKVEIKRTVAAPSVFIFPPSDEQLKSGTASVVCLLNNFYPREAKVQWKVDNALQSGNSQESVTEQDSKDSTYSLSSTLTLSKADYEKHKVYACEVTHQGLSSPVTKSFNRGEC
B4: anti-VLA-2 IgG-1133 (antibody)
heavy: QVQLQESGPGLVKPSETLSLTCTVSGFSLTNYGIHWIRQPPGKGLEWLGVIWARGFTNYNSALMSRLTISKDNSKNQVSLKLSSVTAADTAVYYCARANDGVYYAMDYWGQGTLVTVSSASTKGPSVFPLAPSSKSTSGGTAALGCLVKDYFPEPVTVSWNSGALTSGVHTFPAVLQSSGLYSLSSVVTVPSSSLGTQTYICNVNHKPSNTKVDKKVEPKSCDKTHTCPPCPAPELLGGPSVFLFPPKPKDTLMISRTPEVTCVVVDVSHEDPEVQFKWYVDGVEVHNAKTKPREEQYNSTFRVVSVLTVLHQDWLNGKEYKCKVSNKALPAPIEKTISKTKGQPREPQVYTLPPSREEMTKNQVSLTCLVKGFYPSDIAVEWESSGQPENNYNTTPPMLDSDGSFFLYSKLTVDKSRWQQGNIFSCSVMHEALHNRFTQKSLSLSPGK
light: DFVMTQSPAFLSVTPGEKVTITCSAQSSVNYIHWYQQKPDQAPKKLIYDTSKLASGVPSRFSGSGSGTDYTFTISSLEAEDAATYYCQQWTTNPLTFGQGTKVEIKRTVAAPSVFIFPPSDEQLKSGTASVVCLLNNFYPREAKVQWKVDNALQSGNSQESVTEQDSKDSTYSLSSTLTLSKADYEKHKVYACEVTHQGLSSPVTKSFNRGEC
B5: anti-VLA-2 IgG1 (antibody)
heavy: not shown
light: DFVMTQSPAFLSVTPGEKVTITCSAQSSVNYIHWYQQKPDQAPKKLIYDTSKLASGVPSRFSGSGSGTDYTFTISSLEAEDAATYYCQQWTTNPLTFGQGTKVEIKRTVAAPSVFIFPPSDEQLKSGTASVVCLLNNFYPREAKVQWKVDNALQSGNSQESVTEQDSKDSTYSLSSTLTLSKADYEKHKVYACEVTHQGLSSPVTKSFNRGEC
B6: anti-VLA-2 IgG1-S324N (antibody)
heavy: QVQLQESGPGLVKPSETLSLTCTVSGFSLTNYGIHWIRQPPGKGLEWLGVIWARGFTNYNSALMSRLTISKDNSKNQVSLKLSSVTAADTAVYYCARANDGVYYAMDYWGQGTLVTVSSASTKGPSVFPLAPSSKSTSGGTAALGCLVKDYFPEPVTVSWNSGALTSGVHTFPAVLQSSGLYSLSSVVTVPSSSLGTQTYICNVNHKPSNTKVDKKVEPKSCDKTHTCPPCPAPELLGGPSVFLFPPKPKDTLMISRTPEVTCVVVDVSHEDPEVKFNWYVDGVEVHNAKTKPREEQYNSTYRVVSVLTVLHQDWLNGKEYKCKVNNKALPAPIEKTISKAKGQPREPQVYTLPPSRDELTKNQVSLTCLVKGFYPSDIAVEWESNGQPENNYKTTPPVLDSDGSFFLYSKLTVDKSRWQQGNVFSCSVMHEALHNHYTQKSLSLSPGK
light: DFVMTQSPAFLSVTPGEKVTITCSAQSSVNYIHWYQQKPDQAPKKLIYDTSKLASGVPSRFSGSGSGTDYTFTISSLEAEDAATYYCQQWTTNPLTFGQGTKVEIKRTVAAPSVFIFPPSDEQLKSGTASVVCLLNNFYPREAKVQWKVDNALQSGNSQESVTEQDSKDSTYSLSSTLTLSKADYEKHKVYACEVTHQGLSSPVTKSFNRGEC
B7: anti-VLA-2 IgG1-E269D/S298A/S324N (antibody)
heavy: QVQLQESGPGLVKPSETLSLTCTVSGFSLTNYGIHWIRQPPGKGLEWLGVIWARGFTNYNSALMSRLTISKDNSKNQVSLKLSSVTAADTAVYYCARANDGVYYAMDYWGQGTLVTVSSASTKGPSVFPLAPSSKSTSGGTAALGCLVKDYFPEPVTVSWNSGALTSGVHTFPAVLQSSGLYSLSSVVTVPSSSLGTQTYICNVNHKPSNTKVDKKVEPKSCDKTHTCPPCPAPELLGGPSVFLFPPKPKDTLMISRTPEVTCVVVDVSHDDPEVKFNWYVDGVEVHNAKTKPREEQYNATYRVVSVLTVLHQDWLNGKEYKCKVNNKALPAPIEKTISKAKGQPREPQVYTLPPSRDELTKNQVSLTCLVKGFYPSDIAVEWESNGQPENNYKTTPPVLDSDGSFFLYSKLTVDKSRWQQGNVFSCSVMHEALHNHYTQKSLSLSPGK
light: DFVMTQSPAFLSVTPGEKVTITCSAQSSVNYIHWYQQKPDQAPKKLIYDTSKLASGVPSRFSGSGSGTDYTFTISSLEAEDAATYYCQQWTTNPLTFGQGTKVEIKRTVAAPSVFIFPPSDEQLKSGTASVVCLLNNFYPREAKVQWKVDNALQSGNSQESVTEQDSKDSTYSLSSTLTLSKADYEKHKVYACEVTHQGLSSPVTKSFNRGEC
B8: anti-VLA-2 IgG1-S298A (antibody)
heavy: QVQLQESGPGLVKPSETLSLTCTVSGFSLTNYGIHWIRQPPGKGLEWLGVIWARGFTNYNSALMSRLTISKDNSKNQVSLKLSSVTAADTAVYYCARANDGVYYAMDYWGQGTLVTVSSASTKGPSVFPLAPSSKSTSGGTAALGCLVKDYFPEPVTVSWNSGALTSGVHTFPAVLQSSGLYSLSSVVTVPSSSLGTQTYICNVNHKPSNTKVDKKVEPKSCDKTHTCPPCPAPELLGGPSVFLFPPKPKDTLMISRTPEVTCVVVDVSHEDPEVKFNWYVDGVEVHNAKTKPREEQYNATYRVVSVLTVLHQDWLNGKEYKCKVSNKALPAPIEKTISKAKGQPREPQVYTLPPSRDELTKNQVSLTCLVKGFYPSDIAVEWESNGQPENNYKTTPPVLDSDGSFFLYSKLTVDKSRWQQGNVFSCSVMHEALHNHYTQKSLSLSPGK
light: DFVMTQSPAFLSVTPGEKVTITCSAQSSVNYIHWYQQKPDQAPKKLIYDTSKLASGVPSRFSGSGSGTDYTFTISSLEAEDAATYYCQQWTTNPLTFGQGTKVEIKRTVAAPSVFIFPPSDEQLKSGTASVVCLLNNFYPREAKVQWKVDNALQSGNSQESVTEQDSKDSTYSLSSTLTLSKADYEKHKVYACEVTHQGLSSPVTKSFNRGEC
B9: anti-VLA-2 IgG-3133 (antibody)
heavy: QVQLQESGPGLVKPSETLSLTCTVSGFSLTNYGIHWIRQPPGKGLEWLGVIWARGFTNYNSALMSRLTISKDNSKNQVSLKLSSVTAADTAVYYCARANDGVYYAMDYWGQGTLVTVSSASTKGPSVFPLAPCSRSTSGGTAALGCLVKDYFPEPVTVSWNSGALTSGVHTFPAVLQSSGLYSLSSVVTVPSSSLGTQTYTCNVNHKPSNTKVDKRVEPKSCDKTHTCPPCPAPELLGGPSVFLFPPKPKDTLMISRTPEVTCVVVDVSHEDPEVQFKWYVDGVEVHNAKTKPREEQYNSTFRVVSVLTVLHQDWLNGKEYKCKVSNKALPAPIEKTISKTKGQPREPQVYTLPPSREEMTKNQVSLTCLVKGFYPSDIAVEWESSGQPENNYNTTPPMLDSDGSFFLYSKLTVDKSRWQQGNIFSCSVMHEALHNRFTQKSLSLSPGK
light: DFVMTQSPAFLSVTPGEKVTITCSAQSSVNYIHWYQQKPDQAPKKLIYDTSKLASGVPSRFSGSGSGTDYTFTISSLEAEDAATYYCQQWTTNPLTFGQGTKVEIKRTVAAPSVFIFPPSDEQLKSGTASVVCLLNNFYPREAKVQWKVDNALQSGNSQESVTEQDSKDSTYSLSSTLTLSKADYEKHKVYACEVTHQGLSSPVTKSFNRGEC

Experiments:
[1] = biological target: α2β1 integrin (VLA-2) on HT1080 cells (UniProt P17301 30-1181; P05556 21-798); test: cell-based or functional assay
Chain of α2β1 integrin (VLA-2) on HT1080 cells (P17301 30-1181, chain 1 of 2): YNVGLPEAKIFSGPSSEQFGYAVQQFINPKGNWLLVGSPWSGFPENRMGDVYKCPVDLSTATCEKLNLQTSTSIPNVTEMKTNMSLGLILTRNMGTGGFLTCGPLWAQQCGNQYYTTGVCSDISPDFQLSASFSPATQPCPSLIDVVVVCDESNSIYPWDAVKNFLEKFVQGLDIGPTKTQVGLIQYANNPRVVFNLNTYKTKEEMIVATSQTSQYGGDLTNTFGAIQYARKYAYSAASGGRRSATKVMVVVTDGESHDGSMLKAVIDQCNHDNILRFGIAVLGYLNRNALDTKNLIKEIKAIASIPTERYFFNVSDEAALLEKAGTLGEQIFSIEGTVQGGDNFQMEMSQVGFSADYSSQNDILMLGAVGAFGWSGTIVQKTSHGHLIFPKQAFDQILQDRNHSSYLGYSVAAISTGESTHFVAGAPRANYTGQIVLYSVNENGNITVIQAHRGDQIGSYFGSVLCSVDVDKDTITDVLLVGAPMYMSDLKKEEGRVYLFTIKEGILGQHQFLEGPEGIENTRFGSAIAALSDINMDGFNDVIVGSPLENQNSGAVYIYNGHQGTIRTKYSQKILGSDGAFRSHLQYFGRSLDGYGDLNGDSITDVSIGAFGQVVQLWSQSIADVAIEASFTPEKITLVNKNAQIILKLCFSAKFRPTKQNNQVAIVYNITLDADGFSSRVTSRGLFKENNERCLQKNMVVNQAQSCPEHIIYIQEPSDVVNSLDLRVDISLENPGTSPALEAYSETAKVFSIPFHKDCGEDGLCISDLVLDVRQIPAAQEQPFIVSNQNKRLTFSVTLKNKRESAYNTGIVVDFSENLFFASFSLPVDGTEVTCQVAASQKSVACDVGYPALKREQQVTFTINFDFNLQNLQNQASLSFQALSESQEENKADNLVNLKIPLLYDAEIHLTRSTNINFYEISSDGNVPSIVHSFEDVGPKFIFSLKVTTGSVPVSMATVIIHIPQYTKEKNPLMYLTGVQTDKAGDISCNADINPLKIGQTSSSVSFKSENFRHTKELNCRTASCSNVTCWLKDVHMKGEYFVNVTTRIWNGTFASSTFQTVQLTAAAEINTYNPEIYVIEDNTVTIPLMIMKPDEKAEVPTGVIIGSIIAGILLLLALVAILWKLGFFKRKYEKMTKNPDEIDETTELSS
Chain of α2β1 integrin (VLA-2) on HT1080 cells (P05556 21-798, chain 2 of 2): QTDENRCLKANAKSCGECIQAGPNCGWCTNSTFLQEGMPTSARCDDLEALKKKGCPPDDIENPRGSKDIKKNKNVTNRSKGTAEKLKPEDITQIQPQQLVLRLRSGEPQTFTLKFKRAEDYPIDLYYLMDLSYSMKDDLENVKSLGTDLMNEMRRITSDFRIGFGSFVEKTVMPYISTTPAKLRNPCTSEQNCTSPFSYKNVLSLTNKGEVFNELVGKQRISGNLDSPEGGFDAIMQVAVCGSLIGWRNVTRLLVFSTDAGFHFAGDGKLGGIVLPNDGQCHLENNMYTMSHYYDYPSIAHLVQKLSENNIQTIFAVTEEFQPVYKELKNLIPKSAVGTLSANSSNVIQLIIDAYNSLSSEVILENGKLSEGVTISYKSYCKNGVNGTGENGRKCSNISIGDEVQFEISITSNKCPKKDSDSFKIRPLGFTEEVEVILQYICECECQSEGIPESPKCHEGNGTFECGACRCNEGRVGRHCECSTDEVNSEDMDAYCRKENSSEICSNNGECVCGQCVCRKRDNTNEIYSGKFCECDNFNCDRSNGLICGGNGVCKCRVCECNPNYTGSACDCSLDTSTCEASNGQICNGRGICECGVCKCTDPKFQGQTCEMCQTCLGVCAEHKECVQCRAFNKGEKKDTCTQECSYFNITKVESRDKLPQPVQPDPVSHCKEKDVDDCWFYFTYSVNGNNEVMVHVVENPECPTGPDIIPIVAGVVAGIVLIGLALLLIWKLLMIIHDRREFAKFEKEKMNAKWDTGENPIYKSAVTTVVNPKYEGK

[2] = biological target: complement component C1q (in baby rabbit complement) (rabbit); test: cell-based or functional assay

| Binder | ADCC fold increase (LDH release, HT1080 target cells with human PBMC, antibody 0.1 µg/ml) [1] | CDC fold increase (LDH release, HT1080 cells, baby rabbit complement, antibody 1 µg/ml) [2] | CDC fold increase over the parental anti-VLA-2 IgG4 antibody (LDH release, HT1080 cells, baby rabbit complement, antibody 1 µg/ml) [2] |
| --- | --- | --- | --- |
| B1 | 2 fold | ≥ 6.6 fold |  |
| B2 |  |  | ≥ 9.6 fold |
| B3 | 1.5 fold |  |  |
| B4 |  | ≥ 5.6 fold |  |
| B5 | 1.7 fold |  |  |
| B6 |  | ≥ 6.4 fold |  |
| B7 | 1.7 fold | ≥ 9 fold |  |
| B8 | 1.8 fold |  |  |
| B9 |  | ≥ 8.6 fold |  |
